Results reported in publication PMC5537682, “DNA-Interacting Characteristics of the Archaeal Rudiviral Protein SIRV2_Gp1”.

How the values were obtained:
SIRV2_Gp1 [1] = target: T1, SIRV2_Gp1 (Sulfolobus islandicus rod-shaped virus …, UniProt Q8UYE8 1-83); assay: EMSA; >1 uM protein needed; higher affinity than single-stranded probes; 6-FAM EMSA: 50 mM Tris pH 7.5, 5 mM EDTA, 1 mM DTT, 100 ug/mL BSA, 100 nM probe, 20 min room temperature; 32P EMSA: 20 mM Tris pH 8.0, 0.4 mM EDTA, 1 mM MgCl2; settings: protein: recombinant; tags: C-terminal His-tag (pEXP5-CT/TOPO); blunt
T1 sequence: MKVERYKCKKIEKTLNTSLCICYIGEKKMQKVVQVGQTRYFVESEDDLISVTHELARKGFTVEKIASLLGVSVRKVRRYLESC

SIRV2_Gp1 [2] = target: T1, SIRV2_Gp1; assay: EMSA; >1 uM protein needed; 6-FAM EMSA: 50 mM Tris pH 7.5, 5 mM EDTA, 1 mM DTT, 100 ug/mL BSA, 100 nM probe, 20 min room temperature; 32P EMSA: 20 mM Tris pH 8.0, 0.4 mM EDTA, 1 mM MgCl2; settings: protein: recombinant, tags: C-terminal His-tag (pEXP5-CT/TOPO)
SIRV2_Gp1 [3] = target: T1, SIRV2_Gp1; assay: EMSA; low affinity, >1 uM protein needed; smearing, unbound probe remains; 6-FAM EMSA: 50 mM Tris pH 7.5, 5 mM EDTA, 1 mM DTT, 100 ug/mL BSA, 100 nM probe, 20 min room temperature; 32P EMSA: 20 mM Tris pH 8.0, 0.4 mM EDTA, 1 mM MgCl2; settings: protein: recombinant; tags: C-terminal His-tag (pEXP5-CT/TOPO); label: 5'-6-FAM; single strand

B1: random 30-bp dsDNA (oligos 3-4) (dsDNA)
DNA 1: TGAGTTTTTTTCATTTTTTGCGTAAATTTC
DNA 2: GAAATTTACGCAAAAAATGAAAAAAACTCA
binding result (SIRV2_Gp1 [1]): binds

B2: hairpin DNA (oligo 5) (structured_DNA)
DNA: TGAGTTTTTTTCATTTTTTGCGTAAATTTCGAAATTTACGCAAAAAATGAAAAAAACTCA
binding result (SIRV2_Gp1 [2]; label: 5'-6-FAM, hairpin): binds

B3: Holliday junction DNA (oligos 7-10) (structured_DNA)
DNA 1: GCGTTACAATGGAAACTATTCTTGGCAGTTGCATCCAACG
DNA 2: CGTTGGATGCAACTGCCAAGAATAGTGTCAGTTCCAGACG
DNA 3: CGTCTGGAACTGACACTATTCTTGGCGAATGGTCGTAAGC
DNA 4: GCTTACGACCATTCGCCAAGAATAGTTTCCATTGTAACGC
binding result (SIRV2_Gp1 [2]; four-way junction of 4 strands): binds

B4: random 30-nt ssDNA (oligo 3) (ssDNA)
DNA: B1 DNA 1
binding result (SIRV2_Gp1 [3]): binds
